{"source": "paper PMC8612989", "about": "(Environmental microbiology reports, 2021)", "key": {"[1]": {"test_system": "O=C1C[C@H](O)Cc2cc(O)cc(O)c21", "assay": "purified protein", "conditions": "conditions not separately told (YWA1 assay: pH 6.0, 30 °C)"}, "[2]": {"molecular_target": "Ayg1p chain-shortening enzyme (Aspergillus fumigatus, UniProt Q9UVV1)", "assay": "T4HN production detected in yeast co-expressing alb1 and ayg1", "assay_type": "cell-based", "conditions": "S. cerevisiae INVSc1-npgA, YWA1 formed in the cell by Alb1p; 30 °C"}, "[3]": {"molecular_target": "T1, Arp1p with His-tag (Arp1p-HT), Arp1p dehydratase of Aspergillus fumigatus (Aspergillus fumigatus (strain B-5233)), O14434", "T1 chain": "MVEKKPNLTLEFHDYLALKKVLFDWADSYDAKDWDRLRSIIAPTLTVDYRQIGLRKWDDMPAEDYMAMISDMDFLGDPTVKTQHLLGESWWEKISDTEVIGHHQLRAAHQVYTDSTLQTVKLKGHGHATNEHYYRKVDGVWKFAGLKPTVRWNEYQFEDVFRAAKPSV", "assay": "SEC", "conditions": "remark: other sources report otherwise"}}}
{"molecule": "Arp1p (Arp1p-HT) dehydratase (Aspergillus fumigatus Af293)", "values": [{"measurement": "Km", "setting": "[1]", "result": 15.7, "unit": "µM"}, {"measurement": "kcat", "setting": "[1]", "result": 2.7, "unit": "s⁻¹"}]}
{"molecule": "CC1(O)CC(=O)c2c(cc3cc(O)cc(O)c3c2O)O1", "note": "(stereo not shown) [YWA1]", "values": [{"measurement": "T4HN production detected in yeast co-expressing alb1 and ayg1", "setting": "[2]", "result": "co-transformed into yeast (S. cerevisiae INVSc1-npgA/pYES-alb1+p425-ayg1) and T4HN production was detected"}]}
{"molecule": "Arp1p with His-tag (Arp1p-HT), Arp1p dehydratase of Aspergillus fumigatus, O14434 1-168 (enzyme) MVEKKPNLTLEFHDYLALKKVLFDWADSYDAKDWDRLRSIIAPTLTVDYRQIGLRKWDDMPAEDYMAMISDMDFLGDPTVKTQHLLGESWWEKISDTEVIGHHQLRAAHQVYTDSTLQTVKLKGHGHATNEHYYRKVDGVWKFAGLKPTVRWNEYQFEDVFRAAKPSV", "values": [{"measurement": "stoichiometry N", "setting": "[3]", "result": 3}]}
